Data reported in patent US20220098305A1 (Hoffmann-La Roche, published 2022).
Positions count from the first letter of the chain named. Names and notes keep the numbering of the source. Where two headings read alike, the source gives them in different places. Values belong to the binder of their own block, whether it stands above or below them.

What was measured:
human ICOS [1] = molecular target: T1, human ICOS (human, UniProt Q9Y6W8 21-199); assay: flow cytometry, CHO cells expressing human ICOS
T1 construct: The cell that carries it is named under assay; also called huICOS; CD278
T1 sequence: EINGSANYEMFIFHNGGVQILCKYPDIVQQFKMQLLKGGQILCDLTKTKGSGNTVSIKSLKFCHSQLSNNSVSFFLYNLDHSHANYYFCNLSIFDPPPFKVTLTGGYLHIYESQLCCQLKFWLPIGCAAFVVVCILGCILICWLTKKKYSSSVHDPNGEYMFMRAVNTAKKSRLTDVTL
Procedure: (§1) Briefly, suspension cells were harvested, counted, checked for viability and re-suspended at 1 million cells per ml in FACS buffer (PBS with 0.1% BSA). […] The staining was fixed for 20 min at 4° C. in the dark, using 75 μl of 1% PFA in FACS buffer per well.
(§2) Fluorescence was analyzed by FACS using a FACS Fortessa (Software FACS Diva). Binding curves and EC₅₀ values were obtained using GraphPadPrism 7.

cynomolgus ICOS [2] = molecular target: T2, cynomolgus ICOS (cynomolgus, UniProt Q9Y6W8 21-195 (human entry)); assay: flow cytometry, activated cynomolgus PBMCs, CD4+ subset
T2 chain: T1 sequence with T54K, H81R, A129T, L136F, S152T, D176G, V177T, L179P
Procedure: as §1
(§3) Briefly, cynomolgus PBMCs were activated for 48 hours using Dynabeads™ Human T-Activator CD3/CD28 (Thermo Fischer #11131D) according to manufacturer instruction and stored in RPMI1640 medium containing 10% FCS and 1% Glutamax (Gibco 35050061) at 37° C., in a humidified incubator until subsequent binding experiment was performed, as described above.

human FAP [3] = molecular target: T3, human FAP (human, UniProt Q12884 1-760); assay: flow cytometry, NIH/3T3-huFAP clone 19 cells
T3 construct: also called hu FAP
Procedure: as §1, §2

human ICOS [4] = molecular target: T1, human ICOS; assay: flow cytometry on CHO cells stably expressing human ICOS, AF647-labelled anti-human Fc secondary antibody, MFI
Procedure: as §1, §2

cynomolgus ICOS [5] = molecular target: T2, cynomolgus ICOS; assay: flow cytometry, activated cynomolgus PBMCs, CD4+ subset
Procedure: as §1, §3

cynomolgus ICOS [6] = molecular target: T2, cynomolgus ICOS; assay: flow cytometry, activated cynomolgus PBMCs, CD8+ subset
Procedure: as §1, §3

cynomolgus ICOS [7] = molecular target: T2, cynomolgus ICOS; assay: as above
Procedure: as §1, §3

murine FAP [8] = molecular target: T4, murine FAP (murine, UniProt P97321 26-761, limits assumed); assay: flow cytometry, cells carrying murine FAP not told
T4 construct: also called mouse FAP

murine FAP [9] = molecular target: T4, murine FAP; assay: flow cytometry, % positive cells; cells bearing murine FAP not given
murine ICOS = molecular target: T5, murine ICOS (murine, UniProt Q9WVS0 21-200); assay: flow cytometry, pre-activated murine splenocytes (figure legend: recombinant CHO cells)
T5 sequence: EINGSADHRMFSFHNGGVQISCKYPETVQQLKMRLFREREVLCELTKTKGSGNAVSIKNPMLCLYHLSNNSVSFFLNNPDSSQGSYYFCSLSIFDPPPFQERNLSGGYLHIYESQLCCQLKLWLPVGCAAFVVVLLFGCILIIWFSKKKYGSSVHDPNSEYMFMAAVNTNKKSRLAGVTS

human ICOS [10] = molecular target: T1, human ICOS; assay: flow cytometry on human PBMCs pre-activated 48 h with PHA-L and IL-2, CD4+ subset, MFI
human ICOS [11] = molecular target: T1, human ICOS; assay: as above; remark: listed apart in the source
Procedure: as §1
Briefly, Peripheral blood mononuclear cells (PBMCs) were prepared by Histopaque (Sigma-Aldrich, Cat No. 10771-500ML Histopaque-1077) density centrifugation of enriched lymphocyte preparations of heparinized blood obtained from a Buffy Coat (“Blutspende Zürich”). The blood was diluted 1:2 with sterile DPBS and layered over Histopaque gradient (Sigma, #H8889). After centrifugation (450×g, 30 minutes, room temperature), the plasma above the PBMC-containing interphase was discarded and PBMCs transferred in a new falcon tube subsequently filled with 50 ml of PBS. The mixture was centrifuged (400×g, 10 minutes, room temperature), the supernatant discarded and the PBMC pellet washed twice with sterile PBS (centrifugation steps 350×g, 10 minutes). The resulting PBMC population was counted automatically (Cedex HiRes) and stored in RPMI1640 medium containing 10% FCS and 1% Glutamax (Gibco 35050061). […] After incubation the PBMCs were used for a subsequent binding experiment, as described above.

human FAP [12] = molecular target: T3, human FAP; assay: flow cytometry, NIH/3T3-huFAP clone 19 cells; remark: listed apart in the source
human ICOS [13] = molecular target: T1, human ICOS; assay: cell-based or functional assay
cynomolgus ICOS [14] = molecular target: T2, cynomolgus ICOS; assay: flow cytometry on cynomolgus PBMCs activated 48 h with CD3/CD28 beads, CD8+ subset, MFI
Procedure: as §1, §3

human FAP [15] = molecular target: T3, human FAP; assay: flow cytometry, NIH/3T3-huFAP clone 19 cells; remark: listed apart in the source
cynomolgus ICOS [16] = molecular target: T2, cynomolgus ICOS; assay: flow cytometry on cynomolgus PBMCs activated 48 h with CD3/CD28 beads, CD4+ subset, MFI
Procedure: as §1, §3

human ICOS [17] = molecular target: T1, human ICOS; assay: flow cytometry, SR cells
human ICOS [18] = molecular target: T1, human ICOS; assay: flow cytometry, CHO cells expressing human ICOS; remark: listed apart in the source
human FAP [19] = molecular target: T3, human FAP; assay: flow cytometry on NIH/3T3-huFAP clone 19 cells, geometric MFI
human ICOS [20] = molecular target: T1, human ICOS; assay: flow cytometry on CHO cells expressing human ICOS, PE-labelled secondary antibody; y axis printed LOG10(MFI PE)

binding result (human ICOS [10]): binds
B2: Molecule 41, CEA(A5H1EL1D)-ICOS(1167) 1+1 human IgG1 P329GLALA (bispecific antibody)
heavy 1: EIVLTQSPATLSLSPGERATLSCRASSSVTYIHWYQQKPGQAPRSWIYATSNLASGIPARFSGSGSGTDFTLTISSLEPEDFAVYYCQHWSSKPPTFGQGTKLEIKSSASTKGPSVFPLAPSSKSTSGGTAALGCLVKDYFPEPVTVSWNSGALTSGVHTFPAVLQSSGLYSLSSVVTVPSSSLGTQTYICNVNHKPSNTKVDKKVEPKSCDKTHTCPPCPAPEAAGGPSVFLFPPKPKDTLMISRTPEVTCVVVDVSHEDPEVKFNWYVDGVEVHNAKTKPREEQYNSTYRVVSVLTVLHQDWLNGKEYKCKVSNKALGAPIEKTISKAKGQPREPQVCTLPPSRDELTKNQVSLSCAVKGFYPSDIAVEWESNGQPENNYKTTPPVLDSDGSFFLVSKLTVDKSRWQQGNVFSCSVMHEALHNHYTQKSLSLSP
light 1: EVQLLESGGGLVQPGGSLRLSCAASGFTFTDYYMNWVRQAPGKGLEWLGFIGNKANAYTTEYSASVKGRFTISRDKSKNTLYLQMNSLRAEDTATYYCTRDRGLRFYFDYWGQGTTVTVSSASVAAPSVFIFPPSDEQLKSGTASVVCLLNNFYPREAKVQWKVDNALQSGNSQESVTEQDSKDSTYSLSSTLTLSKADYEKHKVYACEVTHQGLSSPVTKSFNRGEC
heavy 2: not shown
light 2: DIQMTQSPSSVSASVGDRVTITCRASQGINNFLAWYQQKPGKAPKLLIYDASSLQSGVPSRFAGSGSGTDFTLTISSLQPEDFATYYCQQYNFYPLTFGGGTMVEIKRTVAAPSVFIFPPSDRKLKSGTASVVCLLNNFYPREAKVQWKVDNALQSGNSQESVTEQDSKDSTYSLSSTLTLSKADYEKHKVYACEVTHQGLSSPVTKSFNRGEC

binding result (human ICOS [11]): binds | EC50 (human FAP [12]): 4.45 nM
B3: Molecule 13, bispecific 2+1 anti-ICOS (1167)/anti-FAP (4B9) Crossfab-IgG P329G LALA inverted (bispecific antibody)
heavy 1: EVRLLESGGGLVQPGGSLRLSCAASGFTFNTYAVHWVRQAPGKGLEWVSGIGGSGVRTYYADSVKGRLTISRDNSKNTLYLQMNSLRAEDTAIYFCAKDIYVADFTGYAFDIWGQGTMVTVSSASTKGPSVFPLAPSSKSTSGGTAALGCLVEDYFPEPVTVSWNSGALTSGVHTFPAVLQSSGLYSLSSVVTVPSSSLGTQTYICNVNHKPSNTKVDEKVEPKSCDKTHTCPPCPAPEAAGGPSVFLFPPKPKDTLMISRTPEVTCVVVDVSHEDPEVKFNWYVDGVEVHNAKTKPREEQYNSTYRVVSVLTVLHQDWLNGKEYKCKVSNKALGAPIEKTISKAKGQPREPQVCTLPPSRDELTKNQVSLSCAVKGFYPSDIAVEWESNGQPENNYKTTPPVLDSDGSFFLVSKLTVDKSRWQQGNVFSCSVMHEALHNHYTQKSLSLSP
light 1: B2 light 2
heavy 2: not shown
light 2: EVQLLESGGGLVQPGGSLRLSCAASGFTFSSYAMSWVRQAPGKGLEWVSAIIGSGASTYYADSVKGRFTISRDNSKNTLYLQMNSLRAEDTAVYYCAKGWFGGFNYWGQGTLVTVSSASVAAPSVFIFPPSDEQLKSGTASVVCLLNNFYPREAKVQWKVDNALQSGNSQESVTEQDSKDSTYSLSSTLTLSKADYEKHKVYACEVTHQGLSSPVTKSFNRGEC

More lines, now with the values behind:

B1: Molecule 9, bispecific 2+1 anti-ICOS (1167)/anti-FAP (4B9) huIgG1 P329GLALA kih (bispecific antibody)
heavy 1: EVRLLESGGGLVQPGGSLRLSCAASGFTFNTYAVHWVRQAPGKGLEWVSGIGGSGVRTYYADSVKGRLTISRDNSKNTLYLQMNSLRAEDTAIYFCAKDIYVADFTGYAFDIWGQGTMVTVSSASTKGPSVFPLAPSSKSTSGGTAALGCLVKDYFPEPVTVSWNSGALTSGVHTFPAVLQSSGLYSLSSVVTVPSSSLGTQTYICNVNHKPSNTKVDKKVEPKSCDKTHTCPPCPAPEAAGGPSVFLFPPKPKDTLMISRTPEVTCVVVDVSHEDPEVKFNWYVDGVEVHNAKTKPREEQYNSTYRVVSVLTVLHQDWLNGKEYKCKVSNKALGAPIEKTISKAKGQPREPQVCTLPPSRDELTKNQVSLSCAVKGFYPSDIAVEWESNGQPENNYKTTPPVLDSDGSFFLVSKLTVDKSRWQQGNVFSCSVMHEALHNHYTQKSLSLSPGGGGGSGGGGSGGGGSGGGGSEIVLTQSPGTLSLSPGERATLSCRASQSVTSSYLAWYQQKPGQAPRLLINVGSRRATGIPDRFSGSGSGTDFTLTISRLEPEDFAVYYCQQGIMLPPTFGQGTKVEIK
heavy 2: not shown
light: B2 light 2
notes: also called FAP-ICOS (2+1)
EC50 (human ICOS [1]): 2.72 nM | EC50 (cynomolgus ICOS [2]): 5.5 nM | EC50 (human FAP [3]): 5.73 nM | EC50 (read off the curve) (human ICOS [4]): ~3 nM | EC50 (cynomolgus ICOS [5]): 5.5 nM | EC50 (cynomolgus ICOS [6]): 10.5 nM | EC50 (cynomolgus ICOS [7]): 10.5 nM | EC50 (murine FAP [8]): 0.505 nM | EC50 (read off the curve) (murine FAP [9]): ~0.5 nM | EC50 (murine ICOS): 7.21 nM

B4: Molecule 15, bispecific 2+1 anti-ICOS (009v1)/anti-FAP (4B9) huIgG1 P329GLALA kih (bispecific antibody)
heavy 1: EVRLDETGGGVVQPGRPMELSCVASGFTFSDYWMNWVRQSPEKGLEWVAQIRNKPYNYETYYSDSVKGRFTISRDDSKSRVYLQMNNLRAEDMGIYYCTWPRLRSSDWHFDVWGAGTTVTVSSASTKGPSVFPLAPSSKSTSGGTAALGCLVKDYFPEPVTVSWNSGALTSGVHTFPAVLQSSGLYSLSSVVTVPSSSLGTQTYICNVNHKPSNTKVDKKVEPKSCDKTHTCPPCPAPEAAGGPSVFLFPPKPKDTLMISRTPEVTCVVVDVSHEDPEVKFNWYVDGVEVHNAKTKPREEQYNSTYRVVSVLTVLHQDWLNGKEYKCKVSNKALGAPIEKTISKAKGQPREPQVCTLPPSRDELTKNQVSLSCAVKGFYPSDIAVEWESNGQPENNYKTTPPVLDSDGSFFLVSKLTVDKSRWQQGNVFSCSVMHEALHNHYTQKSLSLSPGGGGGSGGGGSGGGGSGGGGSEIVLTQSPGTLSLSPGERATLSCRASQSVTSSYLAWYQQKPGQAPRLLINVGSRRATGIPDRFSGSGSGTDFTLTISRLEPEDFAVYYCQQGIMLPPTFGQGTKVEIK
heavy 2: not shown
light: AIQMTQSPSSLSASLGGEVTITCKASQDINKNIAWYQHKPGRGPRLLIWYTSTLQTGIPSRFSGSGSGRDYSFTISNLEPEDFATYYCLQFDNLYTFGSGTKLEIRRTVAAPSVFIFPPSDEQLKSGTASVVCLLNNFYPREAKVQWKVDNALQSGNSQESVTEQDSKDSTYSLSSTLTLSKADYEKHKVYACEVTHQGLSSPVTKSFNRGEC
EC50 (human ICOS [1]): 1.12 nM | EC50 of activation of Jurkat-NFAT reporter cell line (human ICOS [13]): 4.44 nM | Max (Counts/sec), Jurkat-NFAT reporter cell line (human ICOS [13]): 39700 Counts/sec | EC50 (read off the curve) (cynomolgus ICOS [14]): ~3 nM | EC50 (human FAP [3]): 2.97 nM | EC50 (cynomolgus ICOS [5]): 2.09 nM | EC50 (cynomolgus ICOS [7]): 3.5 nM | EC50 (human FAP [15]): 0.00198 nM | EC50 (read off the curve) (cynomolgus ICOS [16]): ~2 nM | EC50 (human ICOS [17]): 0.00139 nM | EC50 (human ICOS [18]): 0.516 nM | Max (Log10(MFI)) (human ICOS [18]): 3.06 Log10(MFI) | EC50 (read off the curve) (human FAP [19]): ~2 nM | EC50 (read off the curve) (human ICOS [20]): ~0.5 nM
